Residue numbers refer to the chain shown, from its start.

B1: 305LO16-SG422 (antibody, V domains shown)
VH: QVQLVESGGGLVQPGRSLRLSCAASGFTVHSSYYMAWVRQAPGKGLEWVGAIFTGSGAEYKAEWVKGRFTISRDNSKNTLYLQMNSLRAEDTAVYYCASDAGYDYPTHAMHYWGRGTLVTVSS
VL: DIQMTQSPSSLSASVGDRVTITCRASQGISSSLAWYQQKPGKAPKLLIYGASETESGVPSRFSGSGSGTDFTLTISSLQPEDFATYYCQNTKVGSSYGNTFGGGTKVEIK
B2: 305LO20-SG115 (antibody, V domains shown)
VH: QVQLVESGGGLVQPGGSLRLSCAASGFTVHSSYYMAWVRQAPGKGLEWVGAIFTGSGAEYKAEWAKGRVTISKDTSKNQVVLTMTNMDPVDTATYYCASDAGYDYPTHAMHYWGQGTLVTVSS
VL: B1 VL with K42Q, K45R
B3: 305LO23-SG115 (antibody, V domains shown)
VH: B2 VH with G50S, A51G, E59T
VL: B1 VL with K42Q, K45R, E53T, E55Q
B4: 305LO20-SG422 (antibody, V domains shown)
VH: B2 VH
VL: B1 VL with K42Q, K45R
B5: CFA0307 (antibody, V domains shown)
VH: QSLEESGGGLVKPGASLTLTCKASGIDFSNFYYICWVRQAPGKGLDLIACIYTVSGYTYYASWAKGRLTISKTSSTTVTLQMTSLTAADTATYFCARDLHAGITNLWGPGTLVTVSS
VL: AIEMTQTPFSVSAAVGGTVTIKCQASQNIYSNLAWYQQKPGQRPKLLIYGASNLESGVPSRFKGSGSGTEYTLTISDLECADAATYYCLQGYSYSNVDDAFGGGTEVVVK
B6: CFA0599 (antibody, V domains shown)
VH: QSVEESGGRLVTPGTPLTLTCTVSGLSLSDNTMTWVRQAPGKGLEWIGIISFGGDAYYASWAKGRFPISKTSTTVDLRITSPTTEDTATYFCARVGAGNIFWYFDLWGPGTLVTVSS
VL: AYDMTQTPASVEVSVGGTVTIKCQASESIYSALAWYQQKPGQPPKLLIYSASTLASGVPSRFKGSGSGTEYTLTISDLECADAATYYCQQYYSSTNVHNSFGGGTTVVVE
B7: CFA0330 (antibody, V domains shown)
VH: QSLEESGGDLVEPGASLTLTCTASGFSWNSGYDMCWVRQAPGKGLEWIACIYTGSSANTAYANWAKGRFTISKTSSTTVTLQMTGLTAADTATYFCARHDDYFFDLWGPGTLVTVSS
VL: DVVMTQTPASVSESVGGTVTINCQASQSIGNNLAWYQQKPGQPPKLLIYDASNLASGVPSRFKGSRSGTEPTLTNTLTISGVQCADVATYYCQSGWYGNSYVAAFGGGTEVVVK
B8: CFA0538 (antibody, V domains shown)
VH: QSVEESGGRLVTPGTPLTLTCTASGFSLSSYYMNWVRQAPGKGLEWIGMIYGSGATYYASWAKGRFTISKTSSTTVDLKMTSLTTEDTATYFCARQIYSGDNNDNFWGPGTLVTVSS
VL: AYDMTQTPASVEVAVGGTVTINCQASESISNWLAWYQQKPGQRPKLLIYRASTLASGVSSRFKGSGSGTQFTLTISGVECDDAATYYCQQDYSSSNVDNTFGGGTTVVVE
B9: CFA0501 (antibody, V domains shown)
VH: B8 VH
VL: B8 VL with T106K
B10: CFA0672 (antibody, V domains shown)
VH: QSVEESGGRLVTPGTPLTLTCTASGFSLSGNAINWVRQAPGKGLEWIGCIYTGSDTTYYATWAKGRFTISKTSTTVDLKIASPTTEDTATYFCARGSGLWGPGTLVTVSS
VL: DVVMTQTPASVSAPVGGTVTIKCQASQNIYSLLAWYQQKPGQPPKLLIYHTSDLASGVPSRFRGSGSGTEFTLTISDLECADAATYYCQCTAYGSSDVGGTFGGGTTVVVE
B11: CFA0366 (antibody, V domains shown)
VH: QSLEESGGDLVKPGASLSLTCTAAGLDFSSSYYMCWVRQAPGKGLEWIACIYAGSSGIIYYANWAKGRFTISRPSSTTVTLQMTSLTAADTATYFCATYPTYGDGGHAFNLWGPGTLVTVSS
VL: AQVLTQTPSSVSAAVGGTVTINCQSSQSVYSSDYLSWYQQKPGQPPKLLIYEASKLASGVPPRFSGSGSGTQFTLTISGVQCDDAATYYCQGTYYSSGWYFAFGGGTEVVVK
B12: 305LO5 (antibody, V domains shown)
VH: B2 VH with V29S, M35V, F53Y, E59T, E63S, V69F, A101G
VL: DVVMTQSPSSLSASVGDRVTITCQASQNIGSSLAWYQQKPGQAPRLLIYGASKTHSGVPSRFSGSGSGTDFTLTISSLQPEDVATYYCQSTKVGSSYGNHFGGGTKVEIK
B13: CFA0666 (antibody, V domains shown)
VH: QSVEESGGRLVTPGTPLTLTCTVSGFSLSTYAMGWVRQAPGKGLEWIGTIDTGDNSFYANWAKGRFTISKTSTTVDLKITSPTAEDTATYFCARNDGSVYNLFNLWGPGTLVTVSS
VL: DVVMTQTPASVSAAVGGTVTIKCQASENIYSALSWYQQKPGLRPRLLIYYASTLASGVPSRFKGSRSGTEFTLTISDLECADAATYYCQQYYDINSVDNTFGGGTKVVVE
B14: CFA0675 (antibody, V domains shown)
VH: B13 VH with K70R
VL: B13 VL with T85S
B15: CFA0341 (antibody, V domains shown)
VH: QSVEESGGRLVTPGTPLTLTCTVSGIDLSSYTMGWVRQAPGKGLECIGYIHSFGSTYYASWAKGRFTISKTSTTVDLEITSPTTEDTATYFCARDVGGSSGWDLWGQGTLVTVSS
VL: DVVMTQTPSSVSAAVGGTVTIKCQASENIYSNLAWYQQKPGQPPKRLIYDASDLASGVPSRFSGSGYGTQFTLTISGVQCEDAATYYCQANYDSTSSSFGNVFGGGTEVVVK

The first assay has as its target human C5 (human). The assay is described as follows: SPR, pH 5.8, 37C.
Usually Kd stands for the equilibrium constant for the complex coming apart. Read a low Kd as a tighter complex. B1: the Kd turned out to be 79.5 nM.

Take B2: binding was put at a Kd of 58.1 nM. This Kd and that of the molecule before are within 1.5-fold of each other.

In turn, B3 yielded a Kd of 64.1 nM.

B4 displayed an equilibrium dissociation constant (Kd) of 59.9 nM.

Another assay deals with human C5 (human). Briefly: SPR, pH 7.4, 37C. (SPR reads the build-up and loss of mass on a sensor chip optically.)
B5 returned a dissociation constant (Kd) of 8.13 nM. In other words, the single-digit nanomolar range.

B6 gave a Kd of 5.93 nM.

B7 displayed a dissociation constant Kd of 0.122 nM. Compared with the last molecule, the Kd is about 49-fold lower.

For B8, the equilibrium dissociation constant (Kd) worked out at 3.91 nM.

B9 came in with a Kd of 3.56 nM.

For B10, the Kd came to 0.351 nM.

Take B11: binding was put at a Kd of 8.99 nM.

For B12, binding was put at a Kd of 0.471 nM.

In the case of B13, the Kd amounted to 1.71 nM.

B14: binding was characterised by a dissociation constant (Kd) of 1.08 nM.

As to B15, the affinity, expressed as Kd, was 0.155 nM. Compared with the last molecule, the Kd is about 7-fold lower.

Another assay deals with human C5 (human). Briefly: SPR, pH 5.8, 37C. This is another data set of the same source.
Molecule B5 returned a dissociation constant (Kd) of 164 nM.

Regarding B6, the Kd amounted to 82.1 nM.

Turning to B7, the equilibrium dissociation constant (Kd) was found to be 0.184 nM.

In turn, B8 registered a Kd of 246 nM.

B9 registered a Kd of 174 nM.

As to B10, binding was characterised by a dissociation constant (Kd) of 138 nM.

B11 displayed an equilibrium dissociation constant (Kd) of 75.2 nM. This Kd is about 1.8-fold lower than that of the molecule before.

Regarding B12, the Kd came out at 14 nM.

The molecule B13 returned a dissociation constant Kd of 33.3 nM.

B14 gave a dissociation constant (Kd) of 17 nM.

For the molecule B15, the equilibrium dissociation constant (Kd) was 0.0595 nM.

The target in a further assay is human C5 (human). The assay is described as follows: SPR, pH 7.4, 37C. This is another data set of the same source.
The molecule B1 yielded a Kd of 0.321 nM.

As for B2, the affinity, expressed as Kd, was 0.324 nM.

Take B3: the dissociation constant (Kd) worked out at 0.277 nM.

B4 had an equilibrium dissociation constant (Kd) of 0.349 nM. The Kd values of the last two molecules are within 1.5-fold of each other.

These data come from patent US11597760 (dated 2023).
